Experimental data: paper PMC12286842

Biological target: Flag–UBR4 (UBR4 tagged at its endogenous locus) (human (endogenous in HEK293T)) (UniProt Q5T4S7)
Test: cryo-EM structure; endogenous SIFI immunoprecipitated through tagged UBR4 from HEK293T and run on Superose 6 SEC; the complex formed in cells and was co-purified; single-particle cryo-EM, AF2 models fitted in low-resolution regions

Flag–UBR4 (UBR4 tagged at its endogenous locus), Q5T4S7-1 1-5183 (enzyme), sequence (Q5T4S7 whole entry): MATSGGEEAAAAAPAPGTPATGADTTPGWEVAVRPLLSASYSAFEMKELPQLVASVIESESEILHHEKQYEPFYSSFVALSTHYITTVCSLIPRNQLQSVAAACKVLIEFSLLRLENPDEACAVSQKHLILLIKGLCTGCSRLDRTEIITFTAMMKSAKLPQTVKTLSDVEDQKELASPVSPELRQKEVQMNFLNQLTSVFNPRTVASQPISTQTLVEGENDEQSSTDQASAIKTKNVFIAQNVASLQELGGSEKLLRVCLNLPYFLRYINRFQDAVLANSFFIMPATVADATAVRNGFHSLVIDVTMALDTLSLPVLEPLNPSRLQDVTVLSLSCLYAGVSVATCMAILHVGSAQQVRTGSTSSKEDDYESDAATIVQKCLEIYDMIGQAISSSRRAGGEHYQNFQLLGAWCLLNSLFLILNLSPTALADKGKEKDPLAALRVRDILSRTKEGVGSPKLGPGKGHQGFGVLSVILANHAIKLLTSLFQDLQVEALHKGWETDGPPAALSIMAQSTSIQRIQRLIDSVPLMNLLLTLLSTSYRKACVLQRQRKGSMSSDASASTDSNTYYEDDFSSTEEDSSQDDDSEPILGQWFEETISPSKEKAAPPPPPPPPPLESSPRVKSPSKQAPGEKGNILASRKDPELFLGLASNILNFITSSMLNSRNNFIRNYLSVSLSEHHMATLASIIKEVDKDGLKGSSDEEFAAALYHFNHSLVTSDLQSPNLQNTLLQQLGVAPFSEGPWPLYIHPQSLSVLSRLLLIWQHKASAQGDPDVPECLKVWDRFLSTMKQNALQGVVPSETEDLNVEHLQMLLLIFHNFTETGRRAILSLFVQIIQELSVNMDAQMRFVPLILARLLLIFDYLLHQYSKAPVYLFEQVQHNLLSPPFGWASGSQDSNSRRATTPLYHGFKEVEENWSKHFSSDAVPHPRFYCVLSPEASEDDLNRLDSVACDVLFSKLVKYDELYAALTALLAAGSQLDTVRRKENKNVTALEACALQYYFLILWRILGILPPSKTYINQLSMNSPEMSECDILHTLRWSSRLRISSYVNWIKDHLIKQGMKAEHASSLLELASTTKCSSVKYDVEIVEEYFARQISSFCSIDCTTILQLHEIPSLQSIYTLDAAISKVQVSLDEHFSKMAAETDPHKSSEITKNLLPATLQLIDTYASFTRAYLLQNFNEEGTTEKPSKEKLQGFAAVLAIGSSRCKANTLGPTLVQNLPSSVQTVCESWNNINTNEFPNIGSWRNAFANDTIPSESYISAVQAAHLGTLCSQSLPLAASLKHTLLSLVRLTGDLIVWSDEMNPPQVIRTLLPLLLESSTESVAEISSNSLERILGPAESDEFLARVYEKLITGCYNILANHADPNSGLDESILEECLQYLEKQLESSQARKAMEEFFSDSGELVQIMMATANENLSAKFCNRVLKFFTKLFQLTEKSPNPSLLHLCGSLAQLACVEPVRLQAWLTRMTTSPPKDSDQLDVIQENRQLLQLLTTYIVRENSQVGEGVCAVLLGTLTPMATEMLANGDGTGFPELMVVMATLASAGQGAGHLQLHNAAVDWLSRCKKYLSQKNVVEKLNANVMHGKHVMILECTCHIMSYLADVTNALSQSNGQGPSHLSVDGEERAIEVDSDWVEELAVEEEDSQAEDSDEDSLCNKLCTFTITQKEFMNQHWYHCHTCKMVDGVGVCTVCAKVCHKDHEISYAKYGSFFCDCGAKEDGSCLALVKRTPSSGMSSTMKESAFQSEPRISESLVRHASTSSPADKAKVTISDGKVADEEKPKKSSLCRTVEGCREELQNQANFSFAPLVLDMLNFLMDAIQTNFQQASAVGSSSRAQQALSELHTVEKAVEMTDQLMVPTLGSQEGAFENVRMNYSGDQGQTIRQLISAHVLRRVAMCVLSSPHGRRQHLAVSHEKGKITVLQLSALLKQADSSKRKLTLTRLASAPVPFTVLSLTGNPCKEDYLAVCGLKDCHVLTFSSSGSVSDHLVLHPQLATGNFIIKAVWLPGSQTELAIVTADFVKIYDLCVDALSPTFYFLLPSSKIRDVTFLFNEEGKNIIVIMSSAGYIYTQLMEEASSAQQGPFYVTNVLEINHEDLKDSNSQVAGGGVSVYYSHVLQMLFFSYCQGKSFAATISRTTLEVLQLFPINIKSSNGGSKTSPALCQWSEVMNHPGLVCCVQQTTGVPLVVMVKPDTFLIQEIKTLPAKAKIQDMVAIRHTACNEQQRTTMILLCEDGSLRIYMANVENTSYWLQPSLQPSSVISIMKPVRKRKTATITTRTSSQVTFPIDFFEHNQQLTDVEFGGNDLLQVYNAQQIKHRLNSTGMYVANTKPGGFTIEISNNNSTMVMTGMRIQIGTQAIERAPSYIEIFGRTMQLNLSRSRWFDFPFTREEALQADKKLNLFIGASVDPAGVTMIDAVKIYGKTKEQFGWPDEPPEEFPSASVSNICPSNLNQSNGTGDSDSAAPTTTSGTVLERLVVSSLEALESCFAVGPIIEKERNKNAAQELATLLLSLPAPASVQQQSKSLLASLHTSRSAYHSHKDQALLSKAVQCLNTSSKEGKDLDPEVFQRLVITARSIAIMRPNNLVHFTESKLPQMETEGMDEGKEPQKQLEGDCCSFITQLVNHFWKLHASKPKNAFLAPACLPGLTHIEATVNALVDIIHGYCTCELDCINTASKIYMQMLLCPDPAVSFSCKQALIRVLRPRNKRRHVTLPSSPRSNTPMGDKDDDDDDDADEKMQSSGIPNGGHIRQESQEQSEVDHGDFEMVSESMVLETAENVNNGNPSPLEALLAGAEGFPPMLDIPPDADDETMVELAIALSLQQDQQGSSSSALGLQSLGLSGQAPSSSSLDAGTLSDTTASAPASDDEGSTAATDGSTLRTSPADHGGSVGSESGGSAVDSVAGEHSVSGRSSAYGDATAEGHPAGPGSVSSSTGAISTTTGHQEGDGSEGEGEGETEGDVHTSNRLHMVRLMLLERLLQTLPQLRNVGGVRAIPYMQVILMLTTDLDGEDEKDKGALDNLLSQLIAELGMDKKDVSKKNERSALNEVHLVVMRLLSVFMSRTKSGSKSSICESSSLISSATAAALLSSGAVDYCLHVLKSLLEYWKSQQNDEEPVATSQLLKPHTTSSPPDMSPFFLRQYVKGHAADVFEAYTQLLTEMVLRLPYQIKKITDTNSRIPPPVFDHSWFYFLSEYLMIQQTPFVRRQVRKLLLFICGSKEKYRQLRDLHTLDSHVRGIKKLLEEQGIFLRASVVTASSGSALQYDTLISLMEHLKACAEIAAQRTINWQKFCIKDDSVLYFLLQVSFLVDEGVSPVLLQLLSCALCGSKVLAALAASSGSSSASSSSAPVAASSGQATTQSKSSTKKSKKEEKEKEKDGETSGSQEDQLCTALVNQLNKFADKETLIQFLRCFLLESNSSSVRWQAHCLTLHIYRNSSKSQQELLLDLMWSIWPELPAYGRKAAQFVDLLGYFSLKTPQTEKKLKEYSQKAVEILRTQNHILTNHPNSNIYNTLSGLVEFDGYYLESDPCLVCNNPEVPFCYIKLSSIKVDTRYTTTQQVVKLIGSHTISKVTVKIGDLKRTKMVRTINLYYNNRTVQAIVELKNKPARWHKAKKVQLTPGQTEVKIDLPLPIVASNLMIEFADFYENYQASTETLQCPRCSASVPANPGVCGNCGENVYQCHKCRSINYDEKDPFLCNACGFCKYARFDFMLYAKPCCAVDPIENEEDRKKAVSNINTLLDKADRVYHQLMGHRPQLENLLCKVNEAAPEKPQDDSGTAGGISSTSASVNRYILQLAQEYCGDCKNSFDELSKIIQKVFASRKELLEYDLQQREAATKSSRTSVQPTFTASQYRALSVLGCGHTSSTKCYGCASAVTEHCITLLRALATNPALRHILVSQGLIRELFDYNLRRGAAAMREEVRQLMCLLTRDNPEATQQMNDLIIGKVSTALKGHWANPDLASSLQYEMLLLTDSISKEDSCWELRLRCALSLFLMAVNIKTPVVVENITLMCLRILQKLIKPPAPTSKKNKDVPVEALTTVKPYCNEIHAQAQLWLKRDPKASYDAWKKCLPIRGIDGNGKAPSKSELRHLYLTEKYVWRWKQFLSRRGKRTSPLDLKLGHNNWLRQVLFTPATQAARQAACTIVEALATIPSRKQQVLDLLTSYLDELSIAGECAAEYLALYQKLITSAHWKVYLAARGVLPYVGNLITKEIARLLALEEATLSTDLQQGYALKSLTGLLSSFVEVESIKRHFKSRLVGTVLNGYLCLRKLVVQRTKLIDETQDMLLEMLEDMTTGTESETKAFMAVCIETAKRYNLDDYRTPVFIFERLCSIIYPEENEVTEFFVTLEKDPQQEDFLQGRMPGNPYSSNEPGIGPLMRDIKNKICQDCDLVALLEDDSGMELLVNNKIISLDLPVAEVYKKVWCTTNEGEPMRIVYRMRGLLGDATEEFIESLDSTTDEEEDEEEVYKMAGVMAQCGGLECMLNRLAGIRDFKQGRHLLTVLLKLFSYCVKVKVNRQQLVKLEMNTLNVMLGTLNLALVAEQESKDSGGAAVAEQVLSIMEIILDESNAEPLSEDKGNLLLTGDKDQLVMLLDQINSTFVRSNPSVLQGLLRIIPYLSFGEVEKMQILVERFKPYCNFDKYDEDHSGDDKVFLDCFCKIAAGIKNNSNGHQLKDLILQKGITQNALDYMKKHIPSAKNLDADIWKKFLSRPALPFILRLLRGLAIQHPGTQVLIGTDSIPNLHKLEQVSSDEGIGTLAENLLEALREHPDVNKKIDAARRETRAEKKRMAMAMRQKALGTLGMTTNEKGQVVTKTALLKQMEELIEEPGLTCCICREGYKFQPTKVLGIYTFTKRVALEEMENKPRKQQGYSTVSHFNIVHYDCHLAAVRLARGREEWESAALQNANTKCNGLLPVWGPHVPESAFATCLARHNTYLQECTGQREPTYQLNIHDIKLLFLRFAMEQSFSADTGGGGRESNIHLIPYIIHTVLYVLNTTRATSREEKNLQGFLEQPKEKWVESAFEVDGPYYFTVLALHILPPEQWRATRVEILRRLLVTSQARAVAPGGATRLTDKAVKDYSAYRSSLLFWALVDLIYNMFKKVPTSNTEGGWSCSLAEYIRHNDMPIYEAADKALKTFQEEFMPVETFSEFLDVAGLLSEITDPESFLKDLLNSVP

- stoichiometry N: 2
Substance: Flag–UBR4 (UBR4 tagged at its endogenous locus), Q5T4S7-1 1-5183 (enzyme)
